Laboratory results reported in article PMC10247153.
Changes are numbered by the printed parent chain. In names and notes the source's numbering stands.

What was measured:
Assay in all cases: EMSA
[1] = target: unmodified 147 bp mononucleosome, P68431; conditions: chain shown with the change;; parent: ≥ 12.5 ± 1.2
[2] = target: H3K4me3 147 bp mononucleosome, P68431; conditions: chain shown with the change;; parent: 6.9 ± 0.8
[3] = target: H3K4me3 187 bp mononucleosome, P68431; conditions: chain shown with the change;; parent: 7.3 µM

B1: KDM5C^1–839, P41229-1 D87G (protein)
chain: MEPGSDDFLPPPECPVFEPSWAEFRDPLGYIAKIRPIAEKSGICKIRPPADWQPPFAVEVDNFRFTPRIQRLNELEAQTRVKLNYLGQIAKFWEIQGSSLKIPNVERRILDLYSLSKIVVEEGGYEAICKDRRWARVAQRLNYPPGKNIGSLLRSHYERIVYPYEMYQSGANLVQCNTRPFDNEEKDKEYKPHSIPLRQSVQPSKFNSYGRRAKRLQPDPEPTEEDIEKNPELKKLQIYGAGPKMMGLGLMAKDKTLRKKDKEGPECPPTVVVKEELGGDVKVESTSPKTFLESKEELSHSPEPCTKMTMRLRRNHSNAQFIESYVCRMCSRGDEDDKLLLCDGCDDNYHIFCLLPPLPEIPKGVWRCPKCVMAECKRPPEAFGFEQATREYTLQSFGEMADSFKADYFNMPVHMVPTELVEKEFWRLVNSIEEDVTVEYGADIHSKEFGSGFPVSDSKRHLTPEEEEYATSGWNLNVMPVLEQSVLCHINADISGMKVPWLYVGMVFSAFCWHIEDHWSYSINYLHWGEPKTWYGVPSLAAEHLEEVMKKLTPELFDSQPDLLHQLVTLMNPNTLMSHGVPVVRTNQCAGEFVITFPRAYHSGFNQGYNFAEAVNFCTADWLPAGRQCIEHYRRLRRYCVFSHEELICKMAACPEKLDLNLAAAVHKEMFIMVQEERRLRKALLEKGITEAEREAFELLPDDERQCIKCKTTCFLSALACYDCPDGLVCLSHINDLCKCSSSRQYLRYRYTLDELPAMLHKLKVRAESFDTWANKVRVALEVEDGRKRSLEELRALESEARERRFPNSELLQQLKNCLSEAEACVSRALGLVSGQEAG
How did the Kd [1] turn out when B1 was run?
The Kd was 1800 nM.

What about the Kd [2] of the same binder?
Its Kd is 2300 nM.

What about the Kd [3] of the same binder?
Its Kd is 1300 nM.

B2: KDM5C^1–839, P41229-1 A388P (protein)
chain: B1 chain with G87D, A388P
Which results are given for B2?
Kd [1]: 3100 nM; Kd [2]: 3700 nM; Kd [3]: 1800 nM
